Reference: the supplement of paper PMC10724198
± gives the standard deviation of the averaged measurements.

What was measured:
Saccharomyces cerevisiae [1] = test: protein stability index of tFT-peptide fusion (C-terminal peptide) (PSI (0-1 scale)); higher = more stable (slower turnover)
Experimental: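 MPS profiling in S. cerevisiae of the tFT-X12 degron library: putative degron peptides plus stable controls, 12 aa, fused to the C-terminus of a sfGFP-mCherry timer. Cells are FACS-sorted into 8 mCherry/sfGFP bins and deep-sequenced. PSI runs from 0 (unstable) to 1 (stable). Backgrounds are wild type, das1Δ and doa10Δ at 30 °C, and wild type, das1Δ, cdc34-1 and cdc53-1 at 37 °C; 2-3 technical replicates each.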

Saccharomyces cerevisiae [2] = test: as above; details: genetic background: wild type; temperature: 30 C
[3] = genetic background: cdc34-1, temperature: 37 C
[4] = genetic background: cdc53-1, temperature: 37 C
[5] = genetic background: das1 deletion, temperature: 30 C
[6] = genetic background: das1 deletion, temperature: 37 C
[7] = genetic background: doa10 deletion, temperature: 30 C
[8] = genetic background: wild type, temperature: 30 C
[9] = genetic background: wild type, temperature: 37 C
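Also: PSI is a weighted mean of sequencing reads over stability bins, variants kept only with over 10 reads, mCherry proximal and sfGFP distal, peptide attached via GGGS linker.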

Row | Sequence | protein stability index (Saccharomyces cerevisiae [1]; [3]) | protein stability index (Saccharomyces cerevisiae [1]; [4]) | protein stability index (Saccharomyces cerevisiae [1]; [5]) | protein stability index (Saccharomyces cerevisiae [1]; [6]) | protein stability index (Saccharomyces cerevisiae [1]; [7]) | protein stability index (Saccharomyces cerevisiae [1]; [8]) | protein stability index (Saccharomyces cerevisiae [1]; [9]) | protein stability index (Saccharomyces cerevisiae [2])
1 | PSRRLRHFATSP | 0.623 ± 0.058 | 0.68 ± 0.021 | 0.736 ± 0.037 | 0.6646 ± 0.0047 | 0.747 ± 0.038 | 0.703 ± 0.0095 | 0.6412 ± 0.00013 | 0.741 ± 0.023
2 | PTFSPSLPPPRS | 0.632 ± 0.03 | 0.715 ± 0.012 | 0.678 ± 0.027 | 0.703 ± 0.02 | 0.712 ± 0.027 | 0.694 ± 0.022 | 0.67608 ± 0.00018 | 0.3693 ± 0.0019
3 | PVTAVYFVLYIW | 0.134 ± 0.0025 | 0.231 ± 0.017 | 0.177 ± 0.032 | 0.332 ± 0.019 | 0.143 ± 0.01 | 0.167 ± 0.026 | 0.298 ± 0.035 | 0.251 ± 0.03
4 | PYLSAPLVATLS | 0.378 ± 0.014 | 0.424 ± 0.025 | 0.274 ± 0.057 | 0.474 ± 0.0082 | 0.234 ± 0.012 | 0.28 ± 0.045 | 0.426 ± 0.0049 | 0.3853 ± 0.0035
5 | QDQWINTSLELS | 0.677 ± 0.018 | 0.759 ± 0.0081 | 0.676 ± 0.039 | 0.7465 ± 0.0027 | 0.685 ± 0.015 | 0.68 ± 0.035 | 0.711 ± 0.024 | 0.751 ± 0.056
6 | QLIDVGLLNCAA | 0.499 ± 0.044 | 0.557 ± 0.033 | 0.435 ± 0.03 | 0.611 ± 0.052 | 0.412 ± 0.011 | 0.45 ± 0.027 | 0.5616 ± 0.0023 | 0.498 ± 0.079
7 | QWTVRNQGVMQR | 0.699 ± 0.018 | 0.743 ± 0.0096 | 0.652 ± 0.012 | 0.754 ± 0.016 | 0.65 ± 0.036 | 0.681 ± 0.051 | 0.721 ± 0.026 | 0.73 ± 0.017
8 | QYRLMQKKIVNI | 0.644 ± 0.022 | 0.743 ± 0.048 | 0.647 ± 0.015 | 0.718 ± 0.014 | 0.119 ± 0.013 | 0.147 ± 0.024 | 0.253 ± 0.015 | 0.229 ± 0.059
9 | RAEASFFLPKVG | 0.675 ± 0.046 | 0.711 ± 0.0076 | 0.668 ± 0.033 | 0.732 ± 0.016 | 0.41 ± 0.013 | 0.446 ± 0.01 | 0.6398 ± 0.0037 | 0.435 ± 0.07
10 | RAQQRVKERYIE | 0.74 ± 0.046 | 0.729 ± 0.014 | 0.669 ± 0.022 | 0.7311 ± 0.0059 | 0.517 ± 0.058 | 0.581 ± 0.067 | 0.69 ± 0.0077 | 0.432 ± 0.0045
11 | RCIRRWPYILKL | 0.576 ± 0.017 | 0.667 ± 0.0087 | 0.615 ± 0.038 | 0.758 ± 0.059 | 0.214 ± 0.0092 | 0.206 ± 0.042 | 0.285 ± 0.031 | 0.273 ± 0.019
12 | RCSLFAKQVVSL | 0.381 ± 0.032 | 0.442 ± 0.029 | 0.451 ± 0.012 | 0.405 ± 0.0067 | 0.437 ± 0.021 | 0.43 ± 0.0057 | 0.37093 ± 0.00035 | 0.453 ± 0.074
13 | RERRISRIPCLS | 0.594 ± 0.058 | 0.678 ± 0.01 | 0.526 ± 0.018 | 0.6867 ± 0.0014 | 0.174 ± 0.0033 | 0.185 ± 0.035 | 0.362 ± 0.028 | 0.276 ± 0.057
14 | RFHFAAPPHRPS | 0.703 ± 0.024 | 0.744 ± 0.0012 | 0.679 ± 0.027 | 0.748 ± 0.0096 | 0.694 ± 0.062 | 0.668 ± 0.034 | 0.7583 ± 0.0022 | 0.879 ± 0.01
15 | RFIYYCVDVFFS | 0.0337 ± 0.01 | 0.147 ± 0.025 | 0.123 ± 0.049 | 0.215 ± 0.021 | 0.0847 ± 0.031 | 0.1 ± 0.034 | 0.19 ± 0.037 | 0.176 ± 0.033
16 | RFLACSIRYLVY | 0.294 ± 0.012 | 0.425 ± 0.037 | 0.286 ± 0.025 | 0.41 ± 0.008 | 0.227 ± 0.0073 | 0.277 ± 0.018 | 0.4 ± 0.027 | 0.332 ± 0.025
17 | RFRFRRTCLYAT | 0.5745 ± 0.0034 | 0.588 ± 0.077 | 0.501 ± 0.028 | 0.655 ± 0.013 | 0.0931 ± 0.039 | 0.14 ± 0.0057 | 0.217 ± 0.033 | 0.197 ± 0.0089
18 | RGAVRVAWYPVL | 0.699 ± 0.00098 | 0.737 ± 0.01 | 0.64 ± 0.011 | 0.7511 ± 0.0011 | 0.492 ± 0.019 | 0.517 ± 0.0095 | 0.684 ± 0.011 | 0.508 ± 0.095
19 | RGDCFLVLCVWR | 0.499 ± 0.022 | 0.535 ± 0.015 | 0.366 ± 0.032 | 0.563 ± 0.017 | 0.348 ± 0.0047 | 0.362 ± 0.026 | 0.541 ± 0.0062 | 0.485 ± 0.0086
